Entries after “also recorded” stand apart in the source; their conditions may differ.
Tests used:
[1] = tested on: differentiated PLB-985 cells; assay: Quantifying extracellular DNA by SYTOX Green stain after PMA stimulation; type: cell-based, human; conditions: one hour pre-treatment with 10 μM DX1, 300 nM PMA two hours, plate reader; N=3
Description: FIGS. 2A-2D. DAPI and SYTOX™ Green stains support the conclusion that DX1inhibits chromatin decondensation and DNA release by differentiated PLB-985 cells stimulated with PMA. (2A) Chromatin decondensation in differentiated PLB-985 cells after stimulation with PMA±a one hour pre-treatment with 10 μM DX1 was visualized by DAPI stain. Left panel: Control cells with decondensed DAPI stain after PMA stimulation. Right panel: DX1-treated cells retaining condensed DAPI signal after PMA stimulation. Bar: 25 μm. (2B) Quantification of the percentage of differentiated PLB-985 cells with decondensed DAPI stain after PMA stimulation. […] (2C) DNA release by differentiated PLB-985 cells after stimulation with PMA±a one hour pre-treatment with 10 μM DX1 was visualized by addition of the impermeant DNA stain SYTOX™ Green. Representative images are shown. Bar: 25 μm. (2D) SYTOX™ Green signal in wells containing differentiated PLB-985 cells stimulated with PMA±a one hour pre-treatment with 10 […] was quantified by plate reader. […]
SYTOX™ Green is an impermeant fluorescent DNA stain that facilitates visualization of DNA released in NETosis. Differentiated PLB-985 cells treated with control or 10 μM DX1 and stimulated with PMA were exposed to SYTOX™ Green, and fluorescence was visualized under fluorescence microscopy and quantified by plate reader. […]

[2] = tested on: mouse neutrophils; assay: Mouse neutrophils NETosis visualization (MPO, H3Cit, PAD4 immunostaining); type: cell-based; conditions: 10 μM DX1 30 minutes, N=4
Description: (§1) Neutrophils obtained from thioglycollate-treated mice and directly plated onto 20-well plates were treated with control media or media containing 10 μM DX1 for 30 minutes, and then observed for four hours, after which cells were fixed and immunostained for markers of NETs including myeloperoxidase (MPO), H3Cit, and peptidylarginine deiminase 4 (PAD4). The percentage of NETs released per 100 cells was determined by visualization on confocal microscopy and analyzed by ImageJ (NIH).
as §1, with “stimulated with PMA for induction of NOX-dependent NETosis” for “observed”, “MPO,” for “myeloperoxidase (MPO),”, “PAD4.” for “peptidylarginine deiminase 4 (PAD4).”, “confocal fluorescence” for “confocal”, “(NIH). […]” for “(NIH).”
as §1, with “stimulated with a calcium ionophore (ionomycin, IM) for induction of NOX-independent NETosis” for “observed”, “MPO,” for “myeloperoxidase (MPO),”, “PAD4.” for “peptidylarginine deiminase 4 (PAD4).”, “confocal fluorescence” for “confocal”
All mouse work was conducted under a protocol approved by Monash University's Animal Ethics Committee. […] Cells were fixed in periodate-lysine-paraformaldehyde (PLP) overnight, immunostained for markers of NETs including myeloperoxidase (MPO, #AF3667 R&D Systems, MN, USA), H3Cit, and PAD4 (#AB128086, abcam), mounted in DAPI ProLong™ Gold (Molecular Probes, Thermo Fisher Scientific) and NETs were visualized by confocal fluorescence microscopy with a Nikon Ti-E inverted microscope (Nikon Instruments Inc, Melville, NY, USA). […]

[3] = tested on: MPO immunized mice; assay: Mouse model of ANCA associated vasculitis; type: in vivo; conditions: one or two doses of DX1 at 25 mg/kg, assessed day 20, versus MPO immunized control
Description: FIG. 9. Graphic depiction of an experiment testing the impact of DX1 in a 20-day mouse model of ANCA vasculitis.
FIGS. 10A-10D. […] Mice were treated as depicted in FIG. 9. Glomerular segmental necrosis, macrophages, neutrophils, and CD4+ T-cells was evaluated in control and MPO-immunized mice that subsequently were treated with or without one or two doses of DX1.
Mice receiving two doses of DX1 received their second dose at day 18. Mice were culled for assessment at day 20.
Mice were separated into 4 groups: Ova control (n=4); MPO immunized no treatment with DX1 (n=8); MPO immunized and 1 dose of DX1 at 25 mg/kg (n=8) and; MPO immunized and 2 doses of DX1 at 25 mg/kg.

B1: DX1: 3E10 derivative, a di-scFv having the sequence SEQ ID NO: 38; nuclear-penetrating anti-DNA binding protein (protein)
scFv: DIQMTQSPSSLSASLGDRATITCRASKTVSTSSYSYMHWYQQKPGQPPKLLIKYASYLESGVPSRFSGSGSGTDFTLTISSLQPEDAATYYCQHSREFPWTFGGGTKVEIKTVDAAPGGGGSGGGGSGGGGSEVQLVESGGGLVQPGGSLRLSCAASGFTFSNYGMHWVRQAPGKGLEWVSYISSGSSTIYYADSVKGRFTISRDNAKNSLYLQMNSLRAEDTAVYYCARRGLLLDYWGQGTTVTVSSASTKGPSVFPLAPLESTGSDIQMTQSPSSLSASLGDRATITCRASKTVSTSSYSYMHWYQQKPGQPPKLLIKYASYLESGVPSRFSGSGSGTDFTLTISSLQPEDAATYYCQHSREFPWTFGGGTKVEIKTVDAAPGGGGSGGGGSGGGGSEVQLVESGGGLVQPGGSLRLSCAASGFTFSNYGMHWVRQAPGKGLEWVSYISSGSSTIYYADSVKGRFTISRDNAKNSLYLQMNSLRAEDTAVYYCARRGLLLDYWGQGTTVTVSS
modifications: DX1 sequence
B1 was tested, and the “SYTOX Green signal relative to control” value [1] was 0.40±0.01, the “percentage of NETs, unstimulated neutrophils” value ([2]; no stimulus, four hours, control 3.5%±1.0) was 4.0%±1.5 and the “percentage of NETs, ionomycin (IM) stimulation (NOX-independent NETosis)” value ([2]; then IM 4 μM four hours, control 15.5%±3.1) was 2.3%±0.8. For the same molecule, the “percentage of NETs, PMA stimulation (NOX-dependent NETosis)” value ([2]; then PMA four hours, control 36.3%±11.1) was 8.3%±2.7 and the “glomerular segmental necrosis, macrophages, neutrophils and CD4+ T-cells (glomerular inflammation and pathology)” value [3] was “significantly reduced glomerular inflammation and pathology; also recorded: significantly reduced amounts of all of the signs of glomerular inflammation”.

— US20250188194A1, “Method of treatment” (Nucleus Therapeutics Pty Ltd, priority 2021, published 2025)
